Assay results taken from article PMC2880861 (New journal of chemistry = Nouveau journal de chimie, 2010).

What was measured:
[1] = rat, tissue homogenate
[2] = in vitro; conditions: male, Sprague Dawley, rat, tissue homogenate
[3] = target: soluble fibrin fragment DD(E); experiment: DD; conditions: read-out: Ki, inhibition of binding of a fluorescent peptide to DD(E); TBS·Ca; DD(E) 1.5 μM, Fl 1 μM; uncertainties estimated at ±10%
[4] = system: arterial thrombosis; conditions: guinea pig; cited from earlier work
[5] = Variable temperature NMRD and O-17 NMR relaxation in TBS; format: physicochemical
[6] = target: T1, human fibrinogen (Homo sapiens, UniProt P02671+P02675+P02679); experiment: NMRD relaxivity in human fibrinogen/TBS solution; format: physicochemical; conditions: 30 μM human fibrinogen/TBS, 35 °C
T1 sequence (P02671 20-629 limits assumed): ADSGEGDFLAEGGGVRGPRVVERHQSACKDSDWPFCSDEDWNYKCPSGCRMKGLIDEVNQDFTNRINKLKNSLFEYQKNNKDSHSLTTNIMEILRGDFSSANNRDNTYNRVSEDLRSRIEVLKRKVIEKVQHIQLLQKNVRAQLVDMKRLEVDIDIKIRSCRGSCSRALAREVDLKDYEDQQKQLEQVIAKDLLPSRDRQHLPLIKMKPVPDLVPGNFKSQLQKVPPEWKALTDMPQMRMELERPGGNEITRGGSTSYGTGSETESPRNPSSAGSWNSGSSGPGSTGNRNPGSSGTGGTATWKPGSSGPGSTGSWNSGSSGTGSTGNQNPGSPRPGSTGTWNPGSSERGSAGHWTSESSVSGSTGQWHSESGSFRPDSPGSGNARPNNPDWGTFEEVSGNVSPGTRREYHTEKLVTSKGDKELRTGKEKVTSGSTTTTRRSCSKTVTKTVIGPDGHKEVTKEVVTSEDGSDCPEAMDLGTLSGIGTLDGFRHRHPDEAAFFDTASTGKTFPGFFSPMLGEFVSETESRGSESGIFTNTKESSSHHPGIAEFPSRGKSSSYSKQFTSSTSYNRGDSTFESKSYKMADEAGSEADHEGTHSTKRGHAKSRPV
T1 sequence (P02675 31-491): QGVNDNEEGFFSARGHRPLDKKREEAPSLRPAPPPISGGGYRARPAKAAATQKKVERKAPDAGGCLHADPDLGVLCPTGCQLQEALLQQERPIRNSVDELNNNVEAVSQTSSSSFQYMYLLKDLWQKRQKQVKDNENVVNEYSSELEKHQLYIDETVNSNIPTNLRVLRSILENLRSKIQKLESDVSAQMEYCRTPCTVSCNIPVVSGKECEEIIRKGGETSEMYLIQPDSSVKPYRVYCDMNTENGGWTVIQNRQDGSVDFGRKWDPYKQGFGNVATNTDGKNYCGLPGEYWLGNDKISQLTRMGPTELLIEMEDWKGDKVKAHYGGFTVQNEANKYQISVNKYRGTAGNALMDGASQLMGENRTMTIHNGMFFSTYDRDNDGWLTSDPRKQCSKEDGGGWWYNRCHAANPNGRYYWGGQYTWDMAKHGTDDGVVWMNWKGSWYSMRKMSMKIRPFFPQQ
T1 sequence (P02679 27-433 limits assumed): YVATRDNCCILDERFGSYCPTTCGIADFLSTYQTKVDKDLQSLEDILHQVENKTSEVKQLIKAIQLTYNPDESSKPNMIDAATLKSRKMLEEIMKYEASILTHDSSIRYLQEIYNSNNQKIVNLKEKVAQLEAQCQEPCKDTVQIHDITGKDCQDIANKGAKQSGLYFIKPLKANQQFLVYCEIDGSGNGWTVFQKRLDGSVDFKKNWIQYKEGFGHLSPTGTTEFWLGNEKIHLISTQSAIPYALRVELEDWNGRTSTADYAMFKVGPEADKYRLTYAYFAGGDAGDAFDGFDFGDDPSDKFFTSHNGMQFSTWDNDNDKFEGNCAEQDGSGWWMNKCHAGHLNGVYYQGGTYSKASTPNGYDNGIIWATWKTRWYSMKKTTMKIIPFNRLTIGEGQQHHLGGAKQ

[7] = target: T2, gelled human fibrin (Homo sapiens, UniProt P02671+P02675+P02679); experiment: Relaxivity / variable temperature NMRD in fibrin gel; format: physicochemical
T2 sequence (P02671 20-644 isoform P02671-2 limits assumed): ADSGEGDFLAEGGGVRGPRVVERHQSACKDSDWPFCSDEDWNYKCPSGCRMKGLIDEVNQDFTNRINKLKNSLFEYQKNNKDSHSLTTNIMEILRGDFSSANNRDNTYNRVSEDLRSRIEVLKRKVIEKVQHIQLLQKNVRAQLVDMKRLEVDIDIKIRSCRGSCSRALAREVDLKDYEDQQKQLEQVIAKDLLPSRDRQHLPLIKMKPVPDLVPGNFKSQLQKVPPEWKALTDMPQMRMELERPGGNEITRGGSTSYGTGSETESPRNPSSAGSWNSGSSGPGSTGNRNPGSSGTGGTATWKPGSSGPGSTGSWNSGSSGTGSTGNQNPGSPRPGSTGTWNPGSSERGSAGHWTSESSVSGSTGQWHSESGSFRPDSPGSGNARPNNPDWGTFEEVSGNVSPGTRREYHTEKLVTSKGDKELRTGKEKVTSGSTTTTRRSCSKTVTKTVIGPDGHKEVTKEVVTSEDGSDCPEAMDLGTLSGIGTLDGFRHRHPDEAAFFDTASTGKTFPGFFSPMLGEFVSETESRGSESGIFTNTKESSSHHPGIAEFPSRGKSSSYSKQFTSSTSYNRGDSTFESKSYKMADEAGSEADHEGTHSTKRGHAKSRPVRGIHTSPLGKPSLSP
T2 sequence (P02675 45-491 limits assumed): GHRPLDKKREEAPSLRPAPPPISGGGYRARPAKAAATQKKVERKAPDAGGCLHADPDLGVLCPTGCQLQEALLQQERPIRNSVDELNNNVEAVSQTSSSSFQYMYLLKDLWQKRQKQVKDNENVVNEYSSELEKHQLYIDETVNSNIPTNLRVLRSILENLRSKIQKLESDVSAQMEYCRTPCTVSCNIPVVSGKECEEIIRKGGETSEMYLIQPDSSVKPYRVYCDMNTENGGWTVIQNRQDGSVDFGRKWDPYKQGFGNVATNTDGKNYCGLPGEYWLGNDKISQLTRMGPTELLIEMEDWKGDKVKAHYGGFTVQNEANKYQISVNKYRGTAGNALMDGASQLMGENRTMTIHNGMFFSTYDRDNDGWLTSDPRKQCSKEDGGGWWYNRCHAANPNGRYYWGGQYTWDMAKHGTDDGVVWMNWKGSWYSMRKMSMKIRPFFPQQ
T2 sequence (P02679 27-437 isoform P02679-2 limits assumed): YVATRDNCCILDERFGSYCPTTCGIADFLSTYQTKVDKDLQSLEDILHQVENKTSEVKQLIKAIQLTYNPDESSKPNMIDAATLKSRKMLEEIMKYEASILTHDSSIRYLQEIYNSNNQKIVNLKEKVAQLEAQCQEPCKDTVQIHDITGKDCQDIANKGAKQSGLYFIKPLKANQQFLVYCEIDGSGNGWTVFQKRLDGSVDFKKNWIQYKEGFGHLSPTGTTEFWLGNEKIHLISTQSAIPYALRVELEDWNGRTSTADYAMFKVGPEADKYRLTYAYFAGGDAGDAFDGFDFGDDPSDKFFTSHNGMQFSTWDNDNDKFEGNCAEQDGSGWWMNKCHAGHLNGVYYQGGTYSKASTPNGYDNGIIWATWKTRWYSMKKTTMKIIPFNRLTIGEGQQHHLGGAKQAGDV

## CC(C)C[C@H](NC(=O)[C@@H]1CSSC[C@H](NC(=O)[C@@H]2CCCN2C(=O)[C@H](CC(C)C)NC(=O)[C@H](CNC(=O)C(CN(CCN(CC(=O)O)CC(=O)O)CC(=O)O)N(CC(=O)O)CC(=O)O)NC(=O)C(CN(CCN(CC(=O)O)CC(=O)O)CC(=O)O)N(CC(=O)O)CC(=O)O)C(=O)N[C@@H](CC(=O)O)C(=O)N[C@@H](Cc2ccc(O)cc2)C(=O)N[C@@H](Cc2ccc(O)cc2)C(=O)NCC(=O)N[C@@H]([C@@H](C)O)C(=O)N1)C(=O)N[C@@H](CC(=O)O)C(=O)NCc1ccc(CNC(=O)[C@H](CNC(=O)C(CN(CCN(CC(=O)O)CC(=O)O)CC(=O)O)N(CC(=O)O)CC(=O)O)NC(=O)C(CN(CCN(CC(=O)O)CC(=O)O)CC(=O)O)N(CC(=O)O)CC(=O)O)cc1 (some centres unmarked) [Compound 4]
[1]
  fold increase in metabolic stability: 6 to 7 fold
[2]
  half-life at 100 µM: 1.09 h
[3]
  Ki: 12 µM

## CC(C)C[C@H](NC(=O)CN(CCNC(=O)C(CN(CCN(CC(=O)O)CC(=O)O)CC(=O)O)N(CC(=O)O)CC(=O)O)CCNC(=O)C(CN(CCN(CC(=O)O)CC(=O)O)CC(=O)O)N(CC(=O)O)CC(=O)O)C(=O)N1CCC[C@H]1C(=O)N[C@H]1CSSC[C@@H](C(=O)N[C@@H](Cc2ccc(-c3ccccc3)cc2)C(=O)N[C@@H](CC(=O)O)C(=O)NCc2cccc(CNC(=O)CN(CCNC(=O)C(CN(CCN(CC(=O)O)CC(=O)O)CC(=O)O)N(CC(=O)O)CC(=O)O)CCNC(=O)C(CN(CCN(CC(=O)O)CC(=O)O)CC(=O)O)N(CC(=O)O)CC(=O)O)c2)NC(=O)[C@H]([C@@H](C)O)NC(=O)CNC(=O)[C@H](Cc2ccc(O)cc2)NC(=O)[C@H](Cc2ccc(O)cc2)NC(=O)[C@H](CC(=O)O)NC1=O (some centres unmarked) [Compound 5]
[4]
  efficacy in arterial thrombosis model: showed efficacy
[5]
  ΔER^‡ (temperature dependence of τR): 5.95 ± 0.096 kcal/mol
  ΔH^‡ (temperature dependence of τm): 10.9 ± 0.335 kcal/mol
  Δ^2 ×10^−18: 10.2 ±0.5 s^2
[5]; 37 °C
  τm^37: 124±9 ns
  τv^37: 18.0 ±1.7 ps
[5]; 37 °C, isotropic model of rotation
  τR^37: 389±4 ps
[5]; dimensionless
  F^2: 1
[6]
  binding to fibrinogen (from relaxivity enhancement): does not bind/binds weakly to fibrinogen
[7]; 30 μM fibrin gel (FBN)
  ΔEl^‡ (temperature dependence of τloc): 7.17 ± 0.48 kcal/mol
[7]; 30 μM fibrin gel (FBN), 37 °C
  τloc^37: 720±20 ps
[7]; 30 μM fibrin gel (FBN), Lipari-Szabo model
  τR^37 (global): >20,000 (NA) ps
[7]; 30 μM fibrin gel (FBN), dimensionless order parameter
  F^2: 0.08 ±0.02
[7]; 50 μM 5 in 30 μM fibrin gel, based on the measured binding constant
  fraction bound to fibrin: 81%
[7]; bound to fibrin at 1.5T
  relaxivity per Gd: 18 mM⁻¹ s⁻¹
  relaxivity per molecule: 72 mM⁻¹ s⁻¹
[7]; fibrin-bound, best fits
  global τR: > 20 ns
